The results in this text go back to US20060148030A1, “Nuclear receptor err y 3” (FUJISAWA PHARMACEUTICAL CO., LTD, priority 2002, published 2006).

This experiment has as its target T1, PPARγ (Homo sapiens, UniProt P37231).
T1 construct: expressed in transfected cells; host or cells: CV-1 (African green monkey kidney)
T1 sequence (P37231 1-477 isoform P37231-2): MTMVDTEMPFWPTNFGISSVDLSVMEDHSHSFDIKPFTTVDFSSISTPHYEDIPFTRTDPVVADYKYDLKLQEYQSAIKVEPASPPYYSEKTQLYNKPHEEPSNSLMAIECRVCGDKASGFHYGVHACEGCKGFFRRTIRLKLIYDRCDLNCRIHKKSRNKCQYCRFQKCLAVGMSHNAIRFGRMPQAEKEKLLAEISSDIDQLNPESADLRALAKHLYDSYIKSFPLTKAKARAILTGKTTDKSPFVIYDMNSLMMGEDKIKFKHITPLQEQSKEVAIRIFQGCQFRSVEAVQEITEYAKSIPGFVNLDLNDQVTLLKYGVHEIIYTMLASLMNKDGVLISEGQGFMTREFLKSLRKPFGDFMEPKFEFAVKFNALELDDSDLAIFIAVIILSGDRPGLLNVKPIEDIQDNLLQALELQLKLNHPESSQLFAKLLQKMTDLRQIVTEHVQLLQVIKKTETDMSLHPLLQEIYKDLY
T1 sequence (P19793 1-462 partner): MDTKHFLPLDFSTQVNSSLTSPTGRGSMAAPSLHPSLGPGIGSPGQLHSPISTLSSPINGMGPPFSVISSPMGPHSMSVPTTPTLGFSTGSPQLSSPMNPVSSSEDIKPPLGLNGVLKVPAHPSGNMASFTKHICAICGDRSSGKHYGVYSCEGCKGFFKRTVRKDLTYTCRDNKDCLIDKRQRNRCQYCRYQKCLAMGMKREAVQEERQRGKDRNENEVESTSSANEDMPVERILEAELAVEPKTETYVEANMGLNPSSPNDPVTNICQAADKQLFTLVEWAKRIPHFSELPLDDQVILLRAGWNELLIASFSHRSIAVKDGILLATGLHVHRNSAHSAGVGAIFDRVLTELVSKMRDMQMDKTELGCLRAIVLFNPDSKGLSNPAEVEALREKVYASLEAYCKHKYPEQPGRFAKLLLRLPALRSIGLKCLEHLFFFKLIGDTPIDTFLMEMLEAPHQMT
The experiment in a line: Reporter gene assay, ERRγ3 coexisted with PPARγ, pGVP2-PPRE1 in CV-1 cells. It counts as cell-based. The following applies: 10^−6 M rosiglitazone, FIG. 24. The procedure:
Transfection was performed as follows: CV-1 cells were resuspended in DMEM supplemented with 10% fetal bovine serum, 2000 U/l of penicillin G, and 100 mg/l of streptomycin to a concentration of 2×10^5 cells/2.5 ml. This was then seeded to a 6-well plate at 2.5 ml per well, and incubated for 18-24 hours in a CO2 incubator at 37° C. and 5% CO2. 1 μg of each of the expression plasmids for the transcription factors, the luciferase reporter plasmid, and another luciferase reporter plasmid used for normalization of the measured values (pRL-TK), were dissolved in Opti-MEM (Gibco BRL), to a total of 150 μl. […] Luciferase activity was measured using the Dual-Luciferase™ Reporter Assay System (Promega). […] The protocol for measurement was as follows: 50 μl of Luciferase Assay Reagent II was added to each well, stirred for 0.3 seconds, and measured for one second. 50 μl of Stop&Glo™ Reagent was then added, stirred for 0.3 seconds, and measured for one second. The measured values for firefly luciferase activity were corrected by dividing by the value for the Renilla luciferase activity, the internal control. Average values and standard errors were calculated from triplicate samples.
The effect of ligands on the function of ERRγ3 in enhancing the transcriptional activation function of peroxisome proliferator activated receptor (PPAR) α, β, or γ was evaluated using the reporter gene assay (FIG. 24). […]
Background: A reporter such as luciferase makes a cellular process visible.

B1: ERRγ3: novel ERRγ isoform, nuclear receptor protein of 396 amino acids (SEQ ID NO: 2) lacking part of the DNA binding domain (protein, listed as Homo sapiens)
chain: MSNKDRHIDSSCSSFIKTEPSSPASLTDSVNHHSPGGSSDASGSYSSTMNGHQNGLDSPPLYPSAPILGGSGPVRKLYDDCSSTIVEDPQTKCEYMLNSMPKRLCLVCGDIASGYHYGVASCEACKAFFKRTIQGVRLDRVRGGRQKYKRRIDAENSPYLNPQLAQPAKKPYNKIVSHLLVAEPEKIYAMPDPTVPDSDIKALTTLCDLADRELVVIIGWAKHIPGFSTLSLADQMSLLQSAWMEILILGVVYRSLSFEDELVYADDYIMDEDQSKLAGLLDLNNAILQLVKKYKSMKLEKEEFVTLKAIALANSDSMHIEDVEAVQKLQDVLHEALQDYEAGQHMEDPRRAGKMLMTLPLLRQTSTKAVQHFYNIKLEGKVPMHKLFLEMLEAKV
In the case of B1, the “modifying effect on the transcriptional stimulation activity of PPARγ” value is recorded as “did not show any significant modifying effect”.
